# B1: PTPRD (parent)
# chain: ELDELLKEISRKRRSIRYGREVEL
# B2: CHCHD3 (parent)
# chain: YSGAYGASVSDEELKRRVAEELAL
# Variants of: B1
# Test: protein stability index of a GFP-peptide fusion (GPS, HEK-293T) (PSI 1-6); higher = more stable
# Details: c terminus: a fixed tail appended
# 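Further: lentivirally expressed fusions sorted by FACS into six bins by GFP to DsRed ratio, PSI derived from sequencing read proportions per bin multiplied by bin number.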
row,Variant,protein stability index
1,ELDELLKEISRKRRSIRYGREVYL [E23Y],1.92
2,ELDELLKEISRKRRSIRYGREVWL [E23W],2.09
3,ELDELLKEISRKRRSIRYGREVEM [L24M],2.73
4,ELDELLKEISRKRRSIRYGREVEH [L24H],2.91
5,ELDELLKEISRKRRSIRYGREVEI [L24I],2.42
6,ELDELLKEISRKRRSIRYGREVEV [L24V],2.92
7,ELDELLKEISRKRRSIRYGREVEC [L24C],2.38
8,ELDELLKEISRKRRSIRYGREVEQ [L24Q],2.32
9,ELDELLKEISRKRRSIRYGREVEA [L24A],2.69
10,ELDELLKEISRKRRSIRYGREVEK [L24K],2.33
11,ELDELLKEISRKRRSIRYGREVEY [L24Y],2.54
12,ELDELLKEISRKRRSIRYGREVEN [L24N],2.97
13,ELDELLKEISRKRRSIRYGREVED [L24D],2.33
14,ELDELLKEISRKRRSIRYGREVEG [L24G],2.5
15,ELDELLKEISRKRRSIRYGREVEE [L24E],2.77
16,ELDELLKEISRKRRSIRYGREVEP [L24P],2.89
17,ELDELLKEISRKRRSIRYGREVER [L24R],3.13
18,ELDELLKEISRKRRSIRYGREVEW [L24W],2.42
19,ELDELLKEISRKRRSIRYGREVET [L24T],2.86
20,ELDELLKEISRKRRSIRYGREVEF [L24F],2.55
21,ELDELLKEISRKRRSIRYGREVES [L24S],2.69

# Variants of: B2
# Test: as above
# Details: c terminus: a fixed tail appended
row,Variant,protein stability index
1,YSGAYGASVSDEFLKRRVAEELAL [E13F],2.49
2,YSGAYGASVSDEQLKRRVAEELAL [E13Q],2.3
3,YSGAYGASVSDERLKRRVAEELAL [E13R],2.26
4,YSGAYGASVSDEGLKRRVAEELAL [E13G],2.18
5,YSGAYGASVSDEPLKRRVAEELAL [E13P],2.47
6,YSGAYGASVSDENLKRRVAEELAL [E13N],2.44
7,HSGAYGASVSDEELKRRVAEELAL [Y1H],4.99
8,KSGAYGASVSDEELKRRVAEELAL [Y1K],3.73
9,ISGAYGASVSDEELKRRVAEELAL [Y1I],4.74
10,ASGAYGASVSDEELKRRVAEELAL [Y1A],4.93
11,FSGAYGASVSDEELKRRVAEELAL [Y1F],2.71
12,YCGAYGASVSDEELKRRVAEELAL [S2C],2.48
13,YYGAYGASVSDEELKRRVAEELAL [S2Y],4.05
14,YWGAYGASVSDEELKRRVAEELAL [S2W],4.26
15,YNGAYGASVSDEELKRRVAEELAL [S2N],3.63
16,YIGAYGASVSDEELKRRVAEELAL [S2I],2.17
17,YTGAYGASVSDEELKRRVAEELAL [S2T],2.27
18,YGGAYGASVSDEELKRRVAEELAL [S2G],3.62
19,YVGAYGASVSDEELKRRVAEELAL [S2V],1.9
20,YQGAYGASVSDEELKRRVAEELAL [S2Q],3.46
21,YRGAYGASVSDEELKRRVAEELAL [S2R],4.62
22,YKGAYGASVSDEELKRRVAEELAL [S2K],4.35
23,YFGAYGASVSDEELKRRVAEELAL [S2F],3.45
24,YSGAYGASYSDEELKRRVAEELAL [V9Y],1.94
25,YSGAYGASNSDEELKRRVAEELAL [V9N],3.35

row,Variant,protein stability index
1,YSGAYGASHSDEELKRRVAEELAL [V9H],2.77
2,YSGAYGASQSDEELKRRVAEELAL [V9Q],3.18
3,YSGAYGASVSDEELKRRVAEEEAL [L22E],2.7
4,YSGAYGASVSDEELKRRVAEEYAL [L22Y],1.94
5,YSGAYGASVSDEELKRRVAEEKAL [L22K],2.19
6,YSGAYGASVSDEELKRRVAEEIAL [L22I],2.7
7,YSGAYGASVSDEELKRRVAEESAL [L22S],2.4
8,YSGAYGASVSDEELKRRVAEEQAL [L22Q],2.77
9,YSGAYGASVSDEELKRTVAEELAL [R17T],2.53
10,YSGAYGASVSDEELKRIVAEELAL [R17I],2.4
11,YSGAYGASVSDEELKRNVAEELAL [R17N],2.61
12,YSGAYGASVSDEELKRQVAEELAL [R17Q],2.77
13,YSGAYGASVSDEELKRMVAEELAL [R17M],1.94
14,YSGAYGASVSDEELKRYVAEELAL [R17Y],2.33
15,YSGAYGASVSDEELKRDVAEELAL [R17D],2.54
16,YSGAYGASVSDEELKRPVAEELAL [R17P],2.64
17,YSGAYGASVSLEELKRRVAEELAL [D11L],2.57
18,YSGAYGASVSNEELKRRVAEELAL [D11N],2.37
19,YSGAYGASVSIEELKRRVAEELAL [D11I],2.29
20,YSGAYGASVSSEELKRRVAEELAL [D11S],1.86
21,YSGAYGASVSDEELKRRVAEELAK [L24K],2.87
22,YSGAYGASVSDEELKRRVAEELAH [L24H],2.31
23,YSGAYGASVSDEELKRRVAEELAE [L24E],2.92
24,YSGAYGASVSDEELKRRVAEELAC [L24C],2.79
25,YSGAYGASVSDEELKRRVAEELAY [L24Y],2.5

row,Variant,protein stability index
1,YSGAYGASVSDEELKRRVAEELAI [L24I],2.46
2,YSGAYGASVSDEELKRRVAEELAR [L24R],2.52
3,YSGAYGASVSDEELKRRVAEELAP [L24P],2.27
4,YSGAYGASVSDEELKRRVAEELAD [L24D],2.52
5,YSGAYGASVSDEELKRRVAEELAW [L24W],2.33
6,YSGAYGASVSDEELKRRVAEELAM [L24M],2.74
7,YSGAYGASVSDEELKRRVAEELAA [L24A],2.62
8,YSGAYGASVSDEELKRRVAEELAQ [L24Q],2.63
9,YSGAYNASVSDEELKRRVAEELAL [G6N],3.36
10,YSGAYKASVSDEELKRRVAEELAL [G6K],2.06
11,YSGAYRASVSDEELKRRVAEELAL [G6R],2.42
12,YSGAYCASVSDEELKRRVAEELAL [G6C],2.22
13,YSGAYIASVSDEELKRRVAEELAL [G6I],2.12
14,YSGAYGASVSDEELKKRVAEELAL [R16K],2.65
15,YSGAYGASVSDEELKFRVAEELAL [R16F],2.3
16,YSGAYGASVSDEELKWRVAEELAL [R16W],2.54
17,YSGAYGASVSDEELKHRVAEELAL [R16H],2.45
18,YSGAYGASVSDEELKQRVAEELAL [R16Q],2.64
19,YSGAYGASVSDEELKRRVALELAL [E20L],2.22
20,YSGAYGASVSDEELKRRVAQELAL [E20Q],2.68
21,YSGAYGASVSDEELKRRVAKELAL [E20K],2.9
22,YSGAYGASVSDEELKRRVANELAL [E20N],2.15
23,YSGAYGASVSDEELKRRVAHELAL [E20H],2.59
